Test results reported in patent US20080241125A1 (Dana-Farber, published 2008).
No end group written: not given here.

Molecular target: T1, purified IKKγ (human, UniProt Q9Y6K9 1-419, limits assumed)
T1 construct: also called NEMO
Test: GST pull-down of purified IKKγ with GST-MUC1-CD fragments on glutathione beads, anti-IKKγ immunoblot (FIG. 5C)
Description: FIG. 5C is a pair of photographs of immunoblots. […] The precipitates were immunoblotted (IB) with anti-IKKγ antibody. […] The molecular weights of proteins (as indicated on the left of the photographs) are expressed as kilodaltons (kDa).

T1 sequence (Q9Y6K9 whole entry): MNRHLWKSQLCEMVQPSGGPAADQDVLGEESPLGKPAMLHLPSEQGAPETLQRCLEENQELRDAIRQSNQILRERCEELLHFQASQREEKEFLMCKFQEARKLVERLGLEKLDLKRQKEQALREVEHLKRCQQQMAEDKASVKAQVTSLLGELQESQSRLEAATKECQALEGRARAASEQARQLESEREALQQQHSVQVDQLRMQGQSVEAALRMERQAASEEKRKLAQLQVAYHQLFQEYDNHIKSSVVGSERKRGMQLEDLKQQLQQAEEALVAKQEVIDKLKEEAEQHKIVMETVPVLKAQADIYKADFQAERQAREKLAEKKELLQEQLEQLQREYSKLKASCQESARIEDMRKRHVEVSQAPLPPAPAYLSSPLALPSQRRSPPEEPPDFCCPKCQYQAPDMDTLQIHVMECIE

B1: GST-MUC1-CD(1-45) (other)
chain: CQCRRKNYGQLDIFPARDTYHPMSEYPTYHTHGRYVPPSSTDRSP
modifications: cysteine pairing not given here; also: GST fusion, GST sequence and linker not given here
notes: not shown: glutathione S-transferase (GST) tag
B1: no binding.
